Publication PMC5589570, “The antigenic identity of human class I MHC phosphopeptides is critically dependent upon phosphorylation status” (Oncotarget, 2017)
Square brackets hold non-standard residues; d marks the D form. Ends that are not written are not given here. pS = N[C@@H](COP(=O)(O)O)C(=O)O

B1: RQInp, unmodified peptide RQISQDVKL derived from adenosine monophosphate deaminase 2 (AMPD2) (peptide)
peptide: RQISQDVKL
notes: stretch of adenosine monophosphate deaminase 2 (AMPD2); also called non-phosphorylated RQI; source: synthetic peptide
B2: RQA_Vnp, unmodified peptide RQASIELPSMAV derived from Lymphocyte Specific Protein 1 (LSP-1) (peptide)
peptide: RQASIELPSMAV
notes: stretch of Lymphocyte Specific Protein 1 (LSP-1); source: synthetic peptide
B3: RQIp, phosphopeptide RQIpSQDVKL derived from adenosine monophosphate deaminase 2 (AMPD2) (peptide)
peptide: RQI[pS]QDVKL
notes: stretch of adenosine monophosphate deaminase 2 (AMPD2); source: synthetic peptide

Legend:
[1] = biological target: HLA-A2 (heavy chain with β2-microglobulin) (human | , Heavy-chain limits are not given; taken from the longest deposited entity of this paper (mature 1-276, A*02:01). Bound peptide not included: the test peptide is the partner, and the affinity-assay c); test: radioligand binding; competitive peptide binding assay: test peptide (100,000-fold concentration range, triplicate) displaces a radiolabeled peptide from HLA-A2 (refolded with […]); MHC-peptide complexes captured on plates coated with antibody W6/32; IC50 taken as a reasonable approximation of the dissociation constant; conditions: both partners purified
[2] = biological target: HLA-A2 (heavy chain with β2-microglobulin) (human | ); test: as above; conditions: both partners purified

Binder | Kd [1] [nM] | Kd [2] [nM]
B1 | 1920 | 
B2 | 26 | 
B3 |  | 25.5
